From PMC3783652 (ACS chemical biology, 2013)
Blank lines part the entries; values can stand above or below the binder they belong to.

Assays:
[1] = target: CXCL12_(1), constitutively monomeric CXCL12 variant (L55C/I58C) (UniProt P48061 22-93, L55C | I58C); assay: NMR titration
[2] = target: wild type CXCL12 (stromal cell-derived factor-1/SDF-1) (UniProt P48061 22-93); assay: NMR titration

Kd [1]: 1500 µM | Kd [2]: 2700 µM
Binder: Ac-SGDYDSM-NH2 [18SGDYDSM24, unsulfated Tyr21 peptide of CXCR4]

Kd [1]: 1800 µM | Kd [2]: 1000 µM
B1: 9SDNsYTEE15, sTyr12 sulfopeptide of CXCR4 (peptide)
peptide: SDNYTEE
HELM: PEPTIDE1{[ac].S.D.N.[O=C([C@H](Cc1ccc(OS(=O)(=O)O)cc1)N[*:1])[*:2]].T.E.E.[am]}$$$$V2.0
SMILES: CC(=O)N[C@@H](CO)C(=O)N[C@@H](CC(=O)O)C(=O)N[C@@H](CC(N)=O)C(=O)N[C@@H](Cc1ccc(OS(=O)(=O)O)cc1)C(=O)N[C@H](C(=O)N[C@@H](CCC(=O)O)C(=O)N[C@@H](CCC(=O)O)C(N)=O)[C@@H](C)O

Kd [1]: 1600 µM | Kd [2]: 1800 µM
B2: 18SGDsYDSM24, sTyr21 sulfopeptide of CXCR4 (peptide)
peptide: SGDYDSM
HELM: PEPTIDE1{[ac].S.G.D.[O=C([C@H](Cc1ccc(OS(=O)(=O)O)cc1)N[*:1])[*:2]].D.S.M.[am]}$$$$V2.0
SMILES: CSCC[C@H](NC(=O)[C@H](CO)NC(=O)[C@H](CC(=O)O)NC(=O)[C@H](Cc1ccc(OS(=O)(=O)O)cc1)NC(=O)[C@H](CC(=O)O)NC(=O)CNC(=O)[C@H](CO)NC(C)=O)C(N)=O

Kd [1]: 2700 µM | Kd [2]: 2100 µM
Binder: Ac-SDNYTEE-NH2 [9SDNYTEE15, unsulfated Tyr12 peptide of CXCR4]

Kd [1]: 6100 µM | Kd [2]: 4300 µM
B3: 4ISIsYTSD10, sTyr7 sulfopeptide of CXCR4 (peptide)
peptide: ISIYTSD
HELM: PEPTIDE1{[ac].I.S.I.[O=C([C@H](Cc1ccc(OS(=O)(=O)O)cc1)N[*:1])[*:2]].T.S.D.[am]}$$$$V2.0
SMILES: CC[C@H](C)[C@H](NC(C)=O)C(=O)N[C@@H](CO)C(=O)N[C@H](C(=O)N[C@@H](Cc1ccc(OS(=O)(=O)O)cc1)C(=O)N[C@H](C(=O)N[C@@H](CO)C(=O)N[C@@H](CC(=O)O)C(N)=O)[C@@H](C)O)[C@@H](C)CC

Kd [1]: 1100 µM | Kd [2]: 1900 µM
Binder: Ac-ISIYTSD-NH2 [4ISIYTSD10, unsulfated Tyr7 peptide of CXCR4]
